Target: Nogo receptor (NgR)
Assay: cell-based or functional assay

| Binder | neurite outgrowth of cerebellar neurons on MAG-expressing CHO cells, peptide at 15 uM (FIG. 4) [fold] |
| --- | --- |
| VAFELPSRNVTVNETEREFVYSERSGLLLT [MAG peptide MAG(442-471)] | 2 |
| AAARDTVQCLCVVKSNPEPSVAFELPSRNV [MAG peptide MAG(422-451)] | 2 |

— patent US20040121341A1 (RESEARCH FOUNDATION OF CITY UNIVERSITY OF NEW YORK, published 2004)
